Measurements from patent publication US20180258175A1 (ABLEXIS, published 2018).
Changes are numbered by the printed parent chain.

B1: CCK-455A (antibody, V domains shown)
VH: EVQLVESGGGLVQPGGSLRLSCAASGFTFSSYWMHWVRQAPGKGLVWVSRINSDGSSTSYADSVKGRFTISRDNAKNTLYLQMNSLRAEDTAVYYCARDGGTTGAFDIWGQGTMVTVSS
VL: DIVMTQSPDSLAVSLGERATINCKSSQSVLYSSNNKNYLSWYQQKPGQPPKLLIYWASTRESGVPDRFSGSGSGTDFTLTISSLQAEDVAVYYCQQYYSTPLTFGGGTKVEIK
notes: AlivaMab chimeric IgG, human kappa LC
B2: CCK-522A (antibody, V domains shown)
VH: QITLKESGPTLVKPTQTLTLTCTFSGFSLSTSGVGVGWIRQPPGKALEWLALIYWNDDKRYSPSLKSRLTITKDTSKNQVVLTMTNMDPVDTATYYCAHQERRSGWSFDYWGQGTLVSVSS
VL: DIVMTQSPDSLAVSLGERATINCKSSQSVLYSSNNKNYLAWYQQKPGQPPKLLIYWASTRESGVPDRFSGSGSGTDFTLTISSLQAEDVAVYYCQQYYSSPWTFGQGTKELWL
notes: as for B1
B3: CCK-417A (antibody, V domains shown)
VH: QVTLRESGPALVKPTQTLTLTCTFSGFSLSTSGMCVSWIRQPPGKALECLALIDWDDDKYYSTSLKTRLTISKDTSKNQVVLTMTNMDPVDTATYYCARTQLGIADYWGQGTLVTVSS
VL: AIRMTQSPSSFSASTGDRVTITCRASQGISSYLAWYQQKPGKAPKLLIYAASTLQSGVPSRFSGSGSGTDFTLTISCLQSEDFATYYCQQYYSYPFTFGPGTKVDIK
notes: as for B1
B4: CCK-402A (antibody, V domains shown)
VH: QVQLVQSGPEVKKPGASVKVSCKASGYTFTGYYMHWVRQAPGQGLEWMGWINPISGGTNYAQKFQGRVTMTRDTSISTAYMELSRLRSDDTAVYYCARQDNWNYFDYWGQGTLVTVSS
VL: DIVMTQTPLSLPVTPGEPASISCRSSQSLLDSDDGNTYLDWFLQKPGQSPQLLIYTLSYRASGVPDRFSGSGSGTDFTLKISRVEADDVGVYYCMQRIEFPFTFGQGTKLEIK
notes: as for B1
B5: CCK-505A (antibody, V domains shown)
VH: EVQLVESGGGLVQPGGSLRLSCAASGFTFSSYSMNWVRQAPGKGLEWVSYISSSSSTIYYADSVKGRFTISRDNAKNSLYLQMNSLRDEDTAVYYCAREGERFCGADCYPHWFDPWGQGTLVTVSS
VL: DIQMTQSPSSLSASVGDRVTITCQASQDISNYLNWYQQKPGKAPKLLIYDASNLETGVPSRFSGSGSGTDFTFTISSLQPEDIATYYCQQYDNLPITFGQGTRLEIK
notes: as for B1
B6: CCK-542A (antibody, V domains shown)
VH: QVQLQESGPGLVKPSETLSLTCTVSGGSISSYYWSWIRQPAGKGLEWIGRIYSSGSINYNPSLKSRVTMSVDTSKNQFSLKLSSVTAADTAVFYCARDRAFYGMDVWGQGTTVTVSS
VL: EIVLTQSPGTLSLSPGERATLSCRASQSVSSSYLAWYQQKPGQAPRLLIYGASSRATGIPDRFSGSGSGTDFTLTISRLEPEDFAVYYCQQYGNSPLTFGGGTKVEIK
notes: as for B1
B7: CCK-435A (antibody, V domains shown)
VH: QVQLQQWGAGLLKPSETLSLTCAVYGGSCSAYYWSWIRQPPGKGLEWIGEINHSGSTNYNPSLKSRVTISVDTSRNQFSLKLSSVTAADTAVYYCAREADAFDIWGQGTMVTVSS
VL: not shown
notes: as for B1
B8: CCK-511A (antibody, V domains shown)
VH: EVQVVESGGGLVQPGKSLRLSCAASGFPFSVYWMTWVRQAPGKGLEWVANIKQDGSEKYYVDSVKGRFTISRDNAKNSLYLQMNSLRAEDTAVYCCASGYHLFDYWGQGTLVTVSS
VL: not shown
notes: as for B1
B9: CCK-526A (antibody, V domains shown)
VH: B8 VH with P28T, V31T
VL: not shown
notes: as for B1
B10: CCK-412A (antibody, V domains shown)
VH: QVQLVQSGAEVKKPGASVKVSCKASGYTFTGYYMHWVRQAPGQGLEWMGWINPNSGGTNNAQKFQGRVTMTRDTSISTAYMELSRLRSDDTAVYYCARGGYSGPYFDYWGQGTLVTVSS
VL: DIQMTQSPSSVSASVGDRVTITCRASPGISSWLAWYQQKPEKAPKLLIYAASSLQSGVPSRFSGSGSGTDFTLTISSLQPEDFATYYCQQAYSFPYTFGQGTKLEIK
notes: as for B1
B11: CCK-458A (antibody, V domains shown)
VH: QITLKESGPPLVKPTQTLTLTCTFSGFSLSTSGVGVGWIRQPPGKALEWLALIYWNDDKRYSPSLKSRLTITKDTSKNQVVLTMTNMDPVDTATYYCAHSPRYSGYFDYWGQGTLVTVSS
VL: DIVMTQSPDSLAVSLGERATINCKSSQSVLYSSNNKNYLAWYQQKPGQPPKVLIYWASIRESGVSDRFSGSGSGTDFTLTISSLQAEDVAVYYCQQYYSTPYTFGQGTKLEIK
notes: as for B1
B12: CCK-422A (antibody, V domains shown)
VH: QVQLQESGPGLVKPSETLSLTCSVSGGSISSYYWSWIRQPPGKGLEWIGYVSYSGGTNYNPSLKSRVTISVDTSKNQFSLKLSSVTAADTAVYYCARGFDYWGQGTLVTVSS
VL: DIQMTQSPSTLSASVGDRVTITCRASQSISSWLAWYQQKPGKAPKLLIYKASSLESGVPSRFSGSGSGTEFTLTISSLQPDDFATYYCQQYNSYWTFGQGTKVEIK
notes: as for B1
B13: CCK-424A (antibody, V domains shown)
VH: B12 VH with S23T, G44V, V51F, S54N, G56N, A96T, F99M, Y101V, L107T
VL: DIQMTQSPSTLSASVGDRVTITCRASQSISDWLAWYLQKPGKAPKLLIYKASSLESGVPSRFSGSGSGTAFTLTISSLQPDDFATYYCQQYNSHWTFGQGTKVEIK
notes: as for B1
B14: CCL-310A (antibody, V domains shown)
VH: EVQLVESGGGLVQPGGSLRLSCAASGFTFSNYWMRWVRQAPGKGLEWVANIKQDGSEKYYVDSVKGRFTISRDNAKYSLYLQMNSLRAEDTAVYYCARDRLGIFDYWGQGTLVTVSS
VL: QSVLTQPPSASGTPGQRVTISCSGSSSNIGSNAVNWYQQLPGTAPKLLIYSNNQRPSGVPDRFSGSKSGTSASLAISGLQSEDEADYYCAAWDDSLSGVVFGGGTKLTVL
B15: CCL-329A (antibody, V domains shown)
VH: QVQPQESGPGLVKPSETLSLTCTVSGGSISGYYWSWIRQPAGTGLEWIGRIYTSGSTNYNSSLKSRVTMSVDTSKNQFSLKLSSVTAADTAVYYCARERMATIFDYWGQGTLVTVSS
VL: not shown
notes: AlivaMab chimeric IgG, human lambda LC
B16: CCL-215A (antibody, V domains shown)
VH: EVQLVESGGGLVQPGGSLRLSCAASGFTFSSYSMNWVRQAPGKGLEWVSYISSSSSTIYYADSVKGRFTISSDNAKNSLYLQMDSLRDEDTAVYYCARDRLGIPFDYWGQGTLVTVSS
VL: not shown
notes: as for B15
B17: CCL-225A (antibody, V domains shown)
VH: EVQLVESGGGLVKPGGSLRLSCAASGFTFSSYNMNWVRQAPGKGLEWVSSISSSSNYIYYADSVKGRFTISGDTAKNSLFLQMISLRVEDTAVYYCARDRLGIPFDYWGQGSLVTVSS
VL: not shown
notes: as for B15
B18: CCL-327A (antibody, V domains shown)
VH: QVQLQESGPGLVKPSETLSLTCSVSGGSISSYHWSWIRQPAGKGLEWIGRIYTGGSTNYNPSLKSRVTMSVDTSKNQFSLKLSSVTAADTAVYYCARERLTGYFDYWGQGTLVTVSS
VL: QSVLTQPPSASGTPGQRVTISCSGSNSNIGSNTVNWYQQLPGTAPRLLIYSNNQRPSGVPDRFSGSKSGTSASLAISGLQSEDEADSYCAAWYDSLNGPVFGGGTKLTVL
notes: as for B15
B19: CCL-217A (antibody, V domains shown)
VH: B18 VH with S23T, H33Y, T53S, G54S, S56T, D72E, K81N, L100I, Y103H
VL: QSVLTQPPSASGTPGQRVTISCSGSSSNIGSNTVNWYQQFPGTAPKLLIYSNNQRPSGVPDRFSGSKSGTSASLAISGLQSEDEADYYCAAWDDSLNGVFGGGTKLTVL
notes: as for B15
B20: CCL-231A (antibody, V domains shown)
VH: QVQLQESGPGLVKPSETLSLTCTVSGGSISSYYWSWIRQPAGKGLEWIGRIYTSGNTNYNPSLKSRVTMSLDTSKNQFSLKLSSVTAADTAVYYCARVGAIGVDAFDIWGQGTMVTVSS
VL: QSALTQPASVSGSPGQSITISCTGTSSDVGSYNLVSWYQQHPGKAPKLMIYEGSKRPSGVSNRFSGSKSGNTASLTISGLQAEDEADYYCCSYAGSSTFVVFGGGTKLTVL
notes: as for B15
B21: CCL-340A (antibody, V domains shown)
VH: EVQLVESGGGLVKPGGSLRLSCAASGFTFSSYSMKWVRQAPVKGLEWVSSISSSSSYIYYGDSVKGRFTISRDNAKNSLYLQMNSLRAEDTAVYYCARERLGRAFDIWGQGTMVTVSS
VL: not shown
notes: as for B15
B22: CCL-313A (antibody, V domains shown)
VH: QVQLQESGPGLVKPSETLSLTCTVSGGSISSYYWSWIRQPPGKGLEWIGYIYYTGSTNYNPSLKSRVTISVDTSKNQFSLKLSSVTAADTAVYYCARGWWELTFFDYWGQGTLVTVSS
VL: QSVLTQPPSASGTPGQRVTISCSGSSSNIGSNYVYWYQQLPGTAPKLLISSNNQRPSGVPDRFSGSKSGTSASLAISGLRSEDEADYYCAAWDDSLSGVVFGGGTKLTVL
notes: as for B15

target: T1, human CD115 extracellular domain (Sino Biological 10161-H08H) (human, UniProt P07333 20-517); assay: competition ELISA, competitor TMR 44B;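 note: binding of antibodies from single-clone hybridoma supernatants to huCD115 measured with the competitor antibody present, a drop in signal meaning both share an epitope bin; low signal means same epitope bin as the mouse competitor antibody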
T1 construct: extracellular domain; bought recombinant protein; also called huCD115; hu-CD115

Binder | signal vs NO COMP=100
B1 | 28%
B2 | 24%
B3 | 19%
B4 | 126%
B5 | 10%
B6 | 10%
B7 | 75%
B8 | 2%
B9 | 3%
B10 | 110%
B11 | 17%
B12 | 31%
B13 | 53%

target: T1, human CD115 extracellular domain (Sino …); assay: SPR ProteOn, supernatant mAb captured on anti-mouse IgG, Hu CD115 analyte

Binder | Kd | koff | kon
B14 | 0.079 nM | 4.35e-06 s⁻¹ | 50600 M⁻¹ s⁻¹
B15 | 0.038 nM | 4.46e-06 s⁻¹ | 118000 M⁻¹ s⁻¹
B16 | 0.215 nM | 1.83e-05 s⁻¹ | 85300 M⁻¹ s⁻¹
B17 | 0.277 nM | 1.38e-05 s⁻¹ | 50000 M⁻¹ s⁻¹
B18 | 1.41 nM | 0.000189 s⁻¹ | 133000 M⁻¹ s⁻¹
B19 | 1.22 nM | 0.00012 s⁻¹ | 98100 M⁻¹ s⁻¹
B20 | 0.578 nM | 4.71e-05 s⁻¹ | 81000 M⁻¹ s⁻¹
B21 | 0.367 nM | 2.72e-05 s⁻¹ | 74100 M⁻¹ s⁻¹
B22 | 1.24 nM | 9.09e-05 s⁻¹ | 73600 M⁻¹ s⁻¹

target: T1, human CD115 extracellular domain (Sino …); assay: competition ELISA, competitor TMR 24A;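 note: clonal anti-huCD115 hybridoma supernatant antibodies bound with a competitor mouse antibody present, and failure to bind puts a clone in that competitor's epitope bin; low signal means same epitope bin as the mouse competitor antibody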

Binder | signal vs NO COMP=100
B1 | -1%
B2 | 33%
B3 | 6%
B4 | 131%
B5 | 0%
B6 | 94%
B7 | 79%
B8 | 99%
B9 | 68%
B10 | 13%
B11 | 2%
B12 | 11%
B13 | 29%

target: T1, human CD115 extracellular domain (Sino …); assay: competition ELISA, competitor TMR 20A;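 note: epitope binning by ELISA, anti-huCD115 hybridoma supernatant antibodies tested for binding to huCD115 with the competitor antibody present, loss of binding placing them in the competitor's bin; low signal means same epitope bin as the mouse competitor antibody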

Binder | signal vs NO COMP=100
B1 | 58%
B2 | 34%
B3 | 110%
B4 | 145%
B5 | 53%
B6 | 7%
B7 | 85%
B8 | 77%
B9 | 92%
B10 | 70%
B11 | 22%
B12 | 107%
B13 | 98%

target: T1, human CD115 extracellular domain (Sino …); assay: competition ELISA, competitor TMR 35A;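 note: clonal hybridoma supernatant antibodies added to wells after the competitor mouse antibody, lost binding signal puts an antibody in that competitor's epitope bin; low signal means same epitope bin as the mouse competitor antibody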

Binder | signal vs NO COMP=100
B1 | 54%
B3 | 110%
B4 | 11%
B5 | 110%
B6 | 111%
B7 | 96%
B8 | 76%
B9 | 82%
B10 | 78%
B11 | 66%
B12 | 111%
B13 | 102%

target: T1, human CD115 extracellular domain (Sino …); assay: competition ELISA, competitor TMR 100A

Binder | signal vs NO COMP=100
B1 | 79%
B2 | 67%
B3 | 113%
B4 | 147%
B5 | 111%
B6 | 76%
B7 | 17%
B8 | 91%
B9 | 84%
B10 | 91%
B11 | 79%
B12 | 111%
B13 | 98%

target: T1, human CD115 extracellular domain (Sino …); assay: competition ELISA, competitor TMR 95A

Binder | signal vs NO COMP=100
B1 | 0%
B2 | 7%
B3 | 3%
B4 | 131%
B5 | 1%
B6 | 23%
B7 | 86%
B8 | 3%
B9 | 9%
B10 | 3%
B11 | 6%
B12 | 6%
B13 | 16%
